The target in experiment [1] is B30.2 domain of rhesus TRIM5α (rhesus macaque) (UniProt Q0PF16). In words: dual-focus fluorescence correlation spectroscopy (2fFCS); 2 nM Alexa 488-labelled B30.2 or CypA titrated with unlabelled capsid surrogate; 7°C; hydrodynamic radius against concentration, viscosity corrected with CypA as reference; Kd per monomeric capsid equivalent.
For experiment [2], the target named is B30.2 domain of human TRIM5α (human) (UniProt Q9C035). The experiment is described as above.
Experiment [3] concerns the target Flag-tagged human cyclophilin A (human) (UniProt P62937). The description is as above.
The target is the same in experiment [4]. In words: dual-focus fluorescence correlation spectroscopy (2fFCS).

Sequence of Flag-tagged human cyclophilin A (human) (P62937 whole entry): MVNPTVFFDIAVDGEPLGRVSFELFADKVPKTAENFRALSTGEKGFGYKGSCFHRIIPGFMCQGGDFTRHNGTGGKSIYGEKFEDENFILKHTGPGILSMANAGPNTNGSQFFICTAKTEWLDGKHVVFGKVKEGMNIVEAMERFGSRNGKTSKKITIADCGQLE
Sequence of B30.2 domain of human TRIM5α (human) (Q9C035 286-493): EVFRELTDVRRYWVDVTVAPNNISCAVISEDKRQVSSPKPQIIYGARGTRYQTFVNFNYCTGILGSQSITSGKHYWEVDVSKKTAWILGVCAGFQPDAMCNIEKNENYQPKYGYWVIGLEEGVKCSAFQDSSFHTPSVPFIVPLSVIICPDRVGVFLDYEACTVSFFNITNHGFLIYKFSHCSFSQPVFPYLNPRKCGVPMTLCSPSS
Sequence of B30.2 domain of rhesus TRIM5α (rhesus macaque) (Q0PF16 other isoform, or with tags, fused parts or gaps): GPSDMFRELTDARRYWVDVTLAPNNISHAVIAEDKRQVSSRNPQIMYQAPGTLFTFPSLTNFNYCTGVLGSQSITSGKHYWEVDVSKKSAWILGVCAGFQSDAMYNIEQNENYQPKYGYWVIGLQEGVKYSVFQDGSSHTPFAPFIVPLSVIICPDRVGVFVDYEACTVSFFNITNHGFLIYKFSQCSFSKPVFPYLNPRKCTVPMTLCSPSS

Broadly, the Kd is the constant that tells how readily two partners part at equilibrium. On to “TMEA-cross-linked R82C E180D V181A HIV-1 capsid trimer (complex)”, for which the Kd worked out at 440 µM in experiment [1], 840 µM in experiment [2] and 17.8 µM in experiment [3].
In turn, “wild-type, full-length HIV-1 capsid protein (from UniProt P12493 133-363) (natural protein; other documents disagree on this pair)” registered a Kd in experiment [4] of 26.5 µM.
For the substance “disulfide-linked A14C E45C W184A M185A HIV-1 capsid hexamer (complex)”, the Kd in experiment [1] was 600 µM; in experiment [2], 540 µM; in experiment [3], 28.9 µM.
